Assay results published in patent US20160271248A1, “CXCR4 UP- AND DOWN-REGULATION FOR TREATMENT OF DISEASES OR DISORDERS” (priority 2013, published 2016).

Tested on: neuronal FHC
Assay: gp120-mediated upregulation of neuronal FHC in bilaminar co-cultures with neutralizing antibodies or IL-1ra
Assay type: cell-based, rat
Conditions: IL-1β antibody 50 μg/mL, IL-1ra 1 μg/mL
Experimental: FIG. 13, comprising FIGS. 13A-13C, is a set of bar graphs and images illustrating that the presence of an IL-1β neutralizing antibody or IL-1 receptor antagonist abrogated gp120-mediated increases in FHC. Rat neurons cultured with a feeder layer of glia (8 DIV) were treated with either gp120IIIB (200 pM) or gp120BaL (200 pM) in the presence or absence of TNF-α antibody (40 μg/mL), IL-1β antibody (50 μg/mL) or IL-1ra (1 μg/mL). The presence of a TNF-α neutralizing antibody had no effect on the ability of gp120 to upregulate neuronal FHC. Neutralization or antagonism of IL-1β mitigated increases in neuronal FHC caused by gp120 in bilaminar cultures.
Rat cortical neurons were cultured in serum-free media in the presence of a glial feeder layer (Shimizu, et al., 2011, J. Vis. Exp. 57). This culture system largely preserves the in vivo environment, due to the presence of glia; however, it still enables direct investigation of neurons that can be separated by the glia before experiments. Selected studies were also performed in neurons grown in the absence of glia for the entire culture period, as indicated (Sengupta, et al., 2009, J. Neurosci. 29(8):2534-44). All experiments were conducted between 8-13 days in vitro (DIV).
Total protein extracts were obtained using standard protocols. […]

B1: IL-1ra: IL-1 receptor antagonist, an endogenous inhibitor of IL-1 signaling (protein, UniProt P25086 27-178, looked up)
Interleukin-1 receptor …: HPAGKRPCKMQAFRIWDTNQKTFYLRNNQLIAGYLQGPNTKLEEKIDMVPIDFRNVFLGIHGGKLCLSCVKSGDDTKLQLEEVNITDLNKNKEEDKRFTFIRSETGPTTSFESLACPGWFLCTTLEADHPVSLTNTPKEPCTVTKFYFQEDQ
- effect on gp120-induced upregulation of neuronal FHC (gp120IIIB or gp120BaL 200 pM, TNF-α antibody 40 μg/mL): completely blocked
- FHC protein levels, treatment alone (without gp120): no significant effect on FHC protein levels
